Assay results taken from publication PMC4805485.

Legend:
[1] = target: diubiquitin G76C linked via K63, conjugated to BODIPY TMR C5-maleimide (UniProt P0CG47); assay: fluorescence polarisation
K63-linked diubiquitin = K63-linked diubiquitin (UniProt P0CG47); assay: SEC

myosin VI 1050-1131 (from UniProt Q9UM54 1050-1131) (domain or fragment)
fold reduction in binding affinity compared to the MyUb domain alone [1]: 4 fold

MyUb (G1080-R1131) (from UniProt Q9UM54 1080-1131) (domain or fragment)
stoichiometry N (MyUb per diubiquitin) (K63-linked diubiquitin): 1
